Data set [1] deals with GST-WUS (WUSCHEL);8His-MBP-DRN (DORNROSCHEN) (Arabidopsis thaliana;Arabidopsis …, UniProt Q9SB92;Q9SAD4 1-292;1-328, |). Put plainly: EMSA; super-shift on adding DRN to WUS; EMSA kit (Thermo 20148), biotin-labeled probe; buffer, salt, pH and temperature not stated. Conditions: protein: recombinant;recombinant; tags: N-terminal GST (pGEX6p-1);N-terminal 8His-MBP (modified pET28b); label: biotin; blunt. A general note: Mobility shift assays separate free from complexed probe on a gel.

Another data set deals with T1, GST-WUS (WUSCHEL) (Arabidopsis thaliana, UniProt Q9SB92 1-292).
T1 sequence: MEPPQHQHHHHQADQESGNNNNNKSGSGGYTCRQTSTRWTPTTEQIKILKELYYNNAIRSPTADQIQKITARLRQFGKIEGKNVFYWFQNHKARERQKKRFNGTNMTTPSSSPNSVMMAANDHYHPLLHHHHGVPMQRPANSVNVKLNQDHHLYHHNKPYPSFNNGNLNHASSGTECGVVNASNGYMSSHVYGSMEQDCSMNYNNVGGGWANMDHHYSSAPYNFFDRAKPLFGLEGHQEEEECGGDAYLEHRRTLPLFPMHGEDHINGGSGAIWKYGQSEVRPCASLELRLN
The experiment in a line: EMSA; EMSA kit (Thermo 20148), biotin-labeled probe; buffer, salt, pH and temperature not stated. The settings on record: protein: recombinant; tags: N-terminal GST (pGEX6p-1); chain copies: 2; label: biotin; blunt.

GST-WUS (WUSCHEL);8His-MBP-DRN (DORNROSCHEN), sequence (Q9SAD4 whole entry, one chain of several): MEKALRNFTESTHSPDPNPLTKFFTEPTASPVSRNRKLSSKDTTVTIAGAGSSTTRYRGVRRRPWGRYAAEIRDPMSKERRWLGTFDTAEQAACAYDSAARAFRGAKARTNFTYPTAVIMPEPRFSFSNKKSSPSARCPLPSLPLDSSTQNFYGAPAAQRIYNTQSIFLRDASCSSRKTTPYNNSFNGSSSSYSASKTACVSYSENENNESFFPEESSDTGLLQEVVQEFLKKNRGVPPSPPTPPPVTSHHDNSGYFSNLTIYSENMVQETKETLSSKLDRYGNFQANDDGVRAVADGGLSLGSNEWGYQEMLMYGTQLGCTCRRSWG

B1: CLV3 promoter probe (-1090 to -1064) (dsDNA)
DNA 1: GGCTCATATAATCCATTCAATTTATG
DNA 2: CATAAATTGAATGGATTATATGAGCC
In the case of B1, the binding result (in data set [1]; with GST-WUS (WUSCHEL)) was “binds” throughout.
